Results: PMC2323369

Tests used:
Test in all cases: not stated; Table 1, GST-RBD, GDP-RhoA, GTP-Cdc42, GTP-Rac1; the caption names competition ELISA and SPR but not which gave these limits
GST-Cdc42 = GST-Cdc42 (UniProt P60953)
GST-Rac1 = GST-Rac1 (UniProt P63000)
GST-RhoA (wild type) = GST-RhoA (wild type) (UniProt P61586)

Measured: Kd

Chain of GST-Cdc42 (P60953 whole entry): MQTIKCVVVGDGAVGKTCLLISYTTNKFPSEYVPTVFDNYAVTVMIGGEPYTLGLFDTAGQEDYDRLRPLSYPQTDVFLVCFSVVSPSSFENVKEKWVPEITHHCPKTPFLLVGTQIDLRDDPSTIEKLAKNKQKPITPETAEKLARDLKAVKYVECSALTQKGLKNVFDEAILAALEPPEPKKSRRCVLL
Chain of GST-RhoA (wild type) (P61586 whole entry): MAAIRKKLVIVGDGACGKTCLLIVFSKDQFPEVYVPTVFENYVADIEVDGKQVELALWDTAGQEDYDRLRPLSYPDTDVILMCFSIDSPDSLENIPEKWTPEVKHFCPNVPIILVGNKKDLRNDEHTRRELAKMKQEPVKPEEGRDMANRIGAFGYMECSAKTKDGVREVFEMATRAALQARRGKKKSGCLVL

GST-RBD (Rho binding domain of Rhotekin fused to GST) (domain or fragment)
> 50 µM: GST-Cdc42 | GST-Rac1 | GST-RhoA (wild type)
